Ends that are not written are not given here.
Tests used:
endogenous BACE1 = target: T1, endogenous BACE1 (Homo sapiens, UniProt P56817); assay: BACE1 enzyme activity assay on M17 human neuroblastoma cell lysate; type: biochemical; settings: 200 nM peptide
T1 construct: endogenous in cells; host or cells: M17 human neuroblastoma cells (lysate)
Protocol: (§1) The M17 cell lysate was subjected to BACE1 enzyme activity assay and was read on a fluorometer in duplicate with one experimental group of a positive control, without the peptide inhibitor (0 nM), and an experimental group, with an added 200 nM concentration of the peptide inhibitor. […] The mean fluorescent units are a representation of the cleaved product of APP by BACE1 (P<0.0 5). This indicates the production of BACE1 in cultured human neuronal cells and the usefulness of this cell line.
as §1, with “5).” for “5). This indicates the production of BACE1 in cultured human neuronal cells and the usefulness of this cell line.”
The CelLytic extraction kit (Sigma-Aldrich) is used to prepare total protein extracts from M17 cells, with protein concentrations determined by BCA protein assay (Thermo Scientific Pierce, NH, USA), following the manufacturer's instructions.
Cell lysates obtained above are subjected to BACE1 enzyme assays, as described above.

IL-4 binding to IL-4Rα = target: T2, IL-4 binding to IL-4Rα (Homo sapiens, UniProt P24394); assay: Inhibition ELISA of IL-4 binding to IL-4Rα; settings: pre-incubation of IL-4Rα with nM amounts of the peptide
T2 construct: purchased SBH Sciences (IL-4Rα); Sigma-Aldrich (IL-4)
T2 sequence (P24394 26-232 limits assumed): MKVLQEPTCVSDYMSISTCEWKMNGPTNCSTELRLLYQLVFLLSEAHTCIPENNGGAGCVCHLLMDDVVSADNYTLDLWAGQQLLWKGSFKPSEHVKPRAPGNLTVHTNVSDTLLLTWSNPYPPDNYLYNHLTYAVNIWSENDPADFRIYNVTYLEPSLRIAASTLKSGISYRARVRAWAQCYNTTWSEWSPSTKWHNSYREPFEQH
Excerpt: (§2) After extensive washing, HRP will be colorimetrically detected with the substrate o-phenylenediamine (Sigma-Aldrich) and read at 492 nm, according to our established protocols.

IL-13 binding to IL-4Rα = target: T3, IL-13 binding to IL-4Rα (Homo sapiens, UniProt P24394); assay: Inhibition ELISA of IL-13 binding to IL-4Rα; settings: pre-incubation of IL-4Rα with nM amounts of the peptide
T3 construct: purchased SBH Sciences (IL-4Rα); Sigma-Aldrich (IL-13)
T3 sequence (P24394 26-232 limits assumed): T2 sequence (P24394 26-232 limits assumed)
Excerpt: as §2

BACE1 = BACE1 (Homo sapiens, UniProt P56817); assay: BACE1 inhibition assay based on cleavage of fluorogenic APP substrate; type: biochemical; settings: peptide 100 nM and 200 nM; versus 0 nM control
Protocol: The peptide concentrations of 100 nM and 200 nM show a significant (*) difference to the upper limit when compared with the negative control. The mean fluorescent units are a representation of the cleaved product of APP by BACE1 (P<0.0 5).
A fluorescent BACE1 activity assay kit (Sigma-Aldrich, NSW, Australia), is used to not only show the cleavage of APP by BACE1, but also the inhibitors' ability to prevent cleavage of APP by BACE1. A measurement of fluorescence expresses the resulting cleaved APP product, which indirectly measures the activity of BACE1 in cleaving APP. Assays are conducted in triplicate with (1, 10, 100 and 1000 nM) or without the peptide inhibitors, as negative controls. Commercially available BACE1 inhibitors (STA-200 and Merck Compound IV) are used as references. Data derived from assays at various substrate concentrations are used to determine Ki values and the mode of inhibition (competitive/allosteric) using the Lineweaver-Burk method.

[1] = system: JAK-STAT6 signaling in HEK-Blue cells; assay: JAK-STAT6 signaling in HEK-Blue cells (SEAP reporter, QUANTI-Blue); type: cell-based
Protocol: Positive Control (PC) included cells treated with IL-4 cytokine alone. Control 1 (C1) included cells incubated with peptide antagonist only and Control 2 (C2) included cells without any treatment. The results represent the mean of 3 replicates within an experiment and the error bars show standard deviation. P<0.05* denotes significance of optical density (OD) readings compared to positive control (PC).
The percentage values represented here are a reflection of treatments used in FIG. 9 (75 μM, 150 μM and 225 μM). […] Positive control is denoted at 0%, which is used as a referral point for the standard value at which inhibition begins.
Activation of this pathway leads to SEAP secretion in the supernatant and is easily detected using QUANTI-Blue medium that changes colour to purple/blue in the presence of SEAP, following manufacturer's instructions. Cells are grown and maintained in DMEM medium with 10% FCS at 37° C. in a 5% CO2-humidified chamber, following the manufacturer's instructions and established cell culture techniques. […]
In FIG. 9, six treatment wells were used in total; 4 wells treated with peptide N1 and 2 wells without peptide as positive and negative controls (shown in results section). […] The subsequent results were read using an xMark microplate absorbance spectrophotometer (Bio-Rad) at a wavelength of 640 nm

CHO-APP cells = assay: Aβ secretion from CHO-APP cells, sandwich ELISA; type: cell-based, Chinese hamster; settings: 5 hrs treatment; 1 nM to 1 μM
Protocol: Cells were treated for 5 hrs with compound concentrations ranging from 1 nM to 1 μM. Aβ secreted in the cell media was quantified using a sandwich ELISA. Data are calculated relative to Aβ secreted from control cells treated with DMSO (vehicle) alone.
Cells are seeded in 12-well plates and treated for 6-24 hrs with peptide or vehicle. After treatment, the cells are examined under a light microscope to evaluate toxicity. Culture media is collected, centrifuged and stored at −20° C. for Aβ ELISA and for sAPPβ analysis. Cells are harvested in PBS and cell pellets collected by centrifugation and frozen at −80° C. until use. Pellets are homogenized in RIPA buffer (0.1% SDS, 0.5% sodium deoxycholate, 1% Triton X-100, 150 mM NaCl in 50 mM Tris-HCl, pH 7.4) to assay for BACE1 enzymatic activity. The data is normalised to protein concentration determined by the BCA.
0.5 μg of mouse monoclonal antibody WO2 (Aβ1-16) is coated in 384-well plates. After blocking with hydrolysed casein and washing with PBS containing 0.05% Tween 20 (PBS-T), biotinylated IE8 antibody (Aβ18-22) (20 ng dilution in 10 μL blocking buffer) is added followed by culture media samples (50 μL/well). A standard curve of Aβ peptide (0.03-3 ng/well) is run in parallel. […] The plates are read in a Wallac Victor 2 Multicounter instrument and data calculated relative to the Aβ peptide standard curve.

BACE1, sequence (P56817 46-501, species assumed): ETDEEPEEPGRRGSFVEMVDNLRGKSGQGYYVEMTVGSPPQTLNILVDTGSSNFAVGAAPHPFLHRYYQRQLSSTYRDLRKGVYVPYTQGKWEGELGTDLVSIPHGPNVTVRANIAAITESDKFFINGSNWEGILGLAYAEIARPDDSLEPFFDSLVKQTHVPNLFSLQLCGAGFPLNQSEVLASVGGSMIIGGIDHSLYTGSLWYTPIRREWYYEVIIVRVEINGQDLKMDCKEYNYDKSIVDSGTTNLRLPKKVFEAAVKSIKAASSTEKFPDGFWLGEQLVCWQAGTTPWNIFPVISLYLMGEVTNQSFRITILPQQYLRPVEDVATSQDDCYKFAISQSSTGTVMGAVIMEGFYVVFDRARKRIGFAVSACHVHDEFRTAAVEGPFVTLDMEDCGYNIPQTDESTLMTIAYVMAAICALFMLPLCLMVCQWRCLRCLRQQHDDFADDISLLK
T1 sequence (P56817 46-501): as the sequence (P56817 46-501, species assumed) above

inhibition of endogenous BACE1 activity (endogenous BACE1) | reduction of IL-4 binding to IL-4Rα (IL-4 binding to IL-4Rα) [%] | reduction of IL-13 binding to IL-4Rα (IL-13 binding to IL-4Rα) [%] | inhibition of BACE1 activity (BACE1) | Compound | inhibition of JAK-STAT6 signaling ([1]; 225 μM peptide, IL-4 stimulated HEK-Blue cells, dose-dependent (75, 150, 225 μM)) | JAK-STAT6 signaling triggered by peptide alone ([1]; peptide without IL-4) | Aβ secreted in the cell media relative to DMSO control (CHO-APP cells)
more than 50% | 25 | 50 | more than 40% | FHESWPTFLSPS [peptide antagonist] | up to 59% | did not trigger a non-specific JAK-STAT6 signaling | –
– | – | – | – | C[C@@H](NC(=O)c1cc(C(=O)N[C@@H](Cc2ccccc2)[C@H](O)CNC2CC2)cc(N(C)S(C)(=O)=O)c1)c1ccccc1 [Compound IV] | – | – | inhibits Aβ secretion in a dose dependent manner
